Eleven molecules from patent US20240425587A1 (Alector, published 2024) can be followed below.

Changes are numbered by the printed parent chain.

B1: D1 (antibody, V domains shown)
VH: QVQLQQSGVELARPGASVKLSCKASGYNFTSYGINWVKQRTGQGLEWIGKSYPTSGNNYYNEKFKGKATVTADKSSSTAYMELRSLTSEDSAVYFCGVWYGSLFAHWGQGTLVTVTA
VL: DIVMTQSQKFMSTSVGDRVRVTCKASQNVGFNVAWYQQKPGQSPKVLIYSASYRYSGVPDRFTGSGSGTDFTLTITNVQSEDLAEYFCHQYNNFPFTFGSGTKLEIK
notes: second hybridoma campaign
B2: A10 (antibody, V domains shown)
VH: QVQLVQSGAEVKKPGASVKVSCKASGYTFTDYYIHWVRQAPGQGLEWMGWMNPNSGNTGYAQKFQGRVTMTRDTSTSTVYMELSSLRSEDTAVYYCAREGSSGWYVDYWGQGTLVTVSS
VL: DIQMTQSPSSLSASVGDRVTITCQASQDISQFLNWYQQKPGKAPKLLIYDAYSLQSGVPSRFSGSGSGTDFTLTISSLQPEDFATYYCQQANSFPLTFGQGTKVEIK
notes: phage campaign
B3: D4 (antibody, V domains shown)
VH: QVQLQQSGADLARPGASVKLSCKASGYTFTSYGIAWMKQRTGQGLEWIGEIYPRSGNPYYNDRFKGKATLTADRSSNTTYMELRSLTSEDSAVYFCARWVGGIIDYWGQGTSVTVSS
VL: DIVMTQSQKFMSTSIGDRVSVTCKASQNVGFNVAWYQQKPGQSPKPLIYSASYRYSGVPDRFTGSESGTEFTLIISNVQSEDLAEYFCQQYDSYPFTFGSGTNLEIK
notes: second hybridoma campaign
B4: A7 (antibody, V domains shown)
VH: QVQLVQSGAEVKKPGSSVKVSCKASGYTFTSYDINWVRQAPGQGLEWMGGIIPIFGTANYAQKFQGRVTITADESTGTAYMELSSLRSEDTAVYYCAIADGAGWFDPWGQGTLVTVSS
VL: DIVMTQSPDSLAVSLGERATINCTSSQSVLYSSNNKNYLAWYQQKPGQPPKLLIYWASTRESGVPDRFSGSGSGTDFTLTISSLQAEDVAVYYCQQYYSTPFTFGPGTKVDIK
notes: phage campaign
B5: A16 (antibody, human IgG1, kappa, L234A L235A, V domains shown)
VH: B4 VH with T28N, T30L, S31N, I34V, G77S, I98T, A99G, D100V
VL: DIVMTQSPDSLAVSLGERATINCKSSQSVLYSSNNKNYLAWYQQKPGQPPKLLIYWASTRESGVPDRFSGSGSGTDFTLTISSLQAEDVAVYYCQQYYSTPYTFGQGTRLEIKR
B6: A9 (antibody, V domains shown)
VH: QVQLVQSGAEVKKPGSSVKVSCKASGYTFTDYAISWVRQAPGQGLEWMGGITPVFGTPSYAQKFQGRVTITADESTSTAYMELSSLRSEDTAVYYCARGWELRRDPFDYWGQGTLVTVSS
VL: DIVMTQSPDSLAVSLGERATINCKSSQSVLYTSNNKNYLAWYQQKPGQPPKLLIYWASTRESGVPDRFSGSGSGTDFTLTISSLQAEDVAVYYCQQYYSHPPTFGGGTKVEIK
notes: phage campaign
B7: D3 (antibody, V domains shown)
VH: QVQLQQPGADLVKPGASVKVSCKTSGYSFTSYWIHWVKQRPGQGLEWIGRVHPSDSDTDYSQKFKGKATLTVDDSSSTVYMQLTNLTSEDSAVYYCAIEWGYLFDYWGQGTTLSVSS
VL: DIVLTQSPISLAVSLGQRATISCWASQSVSTSSYSYVHWYQQKPGQPPKLLIKYASNLDSGVPARFSGSGSGTDFTLNIHPVDEEDTATYYCHHNWEIPYTFGGGTKLEIK
notes: second hybridoma campaign
B8: D6 (antibody, V domains shown)
VH: EVQLQQSGPELVKPGASVKMSCKASGYTFTDYYMDWVKQSHGESFEWIGRVNPYTGDSSYNQKFKGKATLTVDKSSNTAYLEFNSLTSEGSAVYYCARSDGYHYKYAMDYWGQGTSVTVSS
VL: DVVMTQTPLSLPVSLGDQASISCRSSQSLVHSTGNTYLHWYLQKPGQSPNLLIYKISNRFSGVPDRFSGSGSGTDFTLKISRVEAEDLGVYFCSQSTHVPYTFGGGTKLEIK
notes: second hybridoma campaign; same VH/VL as D8
B9: D8 (antibody, V domains shown)
VH: B8 VH
VL: B8 VL
notes: second hybridoma campaign; same VH/VL as D6
B10: E21 (antibody, V domains shown)
VH: QVQLVQSGAEVKKPGSSVKVSCKASGYTFSNYDINWVRQAPGQGLEWMGGIIPIFGTANYALKFQGRVTITADESTSTAYMELSSLRSEDTAVYYCARGGPWLYFDYWGQGTLVTVSS
VL: DIQMTQSPSSLSASVGDRVTITCRASQSISTYLNWYQQKPGKAPKLLIYAASTLQSGVPSRFSGSGSGTDFTLTISSLQPEDFATYYCQQSYSSPLTFGQGTKLEIK
notes: phage campaign
B11: D7 (antibody, V domains shown)
VH: QVQLKESGPGLVAPSQSLSITCTVSGFSLTSYAISWVRQPPGKGLEWLGIIWTGGDTNYNSGLKSRLSITKDNSKSQVFLKMNSLQTDDTSRYYCARNSLFYGITPYYFDYWGQGTTLTVSS
VL: DIVLTQSPATLSVTPGDSVSLSCRASQSIRNDLHWYQQKSHESPRLLIKYASQSISGIPSRFSGSGSGTDFTLTINVLETEDFGMYFCQQSNGWPLTFGAGTKLELK
notes: second hybridoma campaign

T3 sequence (Q2YFS3 32-302): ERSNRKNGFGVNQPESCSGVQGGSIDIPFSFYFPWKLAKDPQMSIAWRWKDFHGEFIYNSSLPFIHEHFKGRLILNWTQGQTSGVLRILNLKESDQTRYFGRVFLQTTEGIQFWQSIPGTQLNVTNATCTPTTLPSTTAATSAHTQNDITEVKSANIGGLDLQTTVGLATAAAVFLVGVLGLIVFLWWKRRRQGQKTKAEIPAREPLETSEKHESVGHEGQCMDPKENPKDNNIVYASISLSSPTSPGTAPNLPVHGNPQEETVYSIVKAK
T5 sequence (Q9UKJ1 20-197 limits assumed): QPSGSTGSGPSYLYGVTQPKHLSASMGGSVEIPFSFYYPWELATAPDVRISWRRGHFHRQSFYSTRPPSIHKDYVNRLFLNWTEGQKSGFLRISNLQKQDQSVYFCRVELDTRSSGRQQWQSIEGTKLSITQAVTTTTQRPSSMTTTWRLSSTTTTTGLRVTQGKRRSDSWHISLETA
Sequence of cynomolgus PILRA, ectopically expressed on 293 cells (cynomolgus monkey) (chain, as listed by the source): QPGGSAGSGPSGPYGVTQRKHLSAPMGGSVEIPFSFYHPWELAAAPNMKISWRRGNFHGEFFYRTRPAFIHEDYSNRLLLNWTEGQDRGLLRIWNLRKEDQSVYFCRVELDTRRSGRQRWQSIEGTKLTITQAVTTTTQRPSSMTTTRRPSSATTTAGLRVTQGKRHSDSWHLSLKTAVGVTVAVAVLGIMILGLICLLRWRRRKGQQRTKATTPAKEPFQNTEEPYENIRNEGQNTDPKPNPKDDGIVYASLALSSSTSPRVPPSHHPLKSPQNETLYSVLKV

One experiment deals with T1, human PILRA, G78 variant, ectopically expressed on 293 cells (human, UniProt Q9UKJ1 20-303).
T1 construct: the cells are labelled G78; also called hA G78 OE; hA
T1 sequence (Q9UKJ1 other isoform, or with tags, fused parts or gaps mutant): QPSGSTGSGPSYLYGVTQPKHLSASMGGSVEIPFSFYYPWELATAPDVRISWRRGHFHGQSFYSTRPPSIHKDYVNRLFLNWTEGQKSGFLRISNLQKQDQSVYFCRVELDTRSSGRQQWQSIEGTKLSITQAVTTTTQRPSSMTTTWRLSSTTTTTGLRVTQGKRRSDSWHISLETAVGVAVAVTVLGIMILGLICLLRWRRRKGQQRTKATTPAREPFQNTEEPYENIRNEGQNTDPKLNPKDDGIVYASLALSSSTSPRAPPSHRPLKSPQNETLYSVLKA
Kind of experiment: flow cytometry, 293 cells expressing target. The protocol: (§1) Briefly, conditioned media containing antibodies were incubated with 293 cells for 30 min at 4° C., washed twice, and then detected with anti-mouse IgG Alexa 647.
For B1, the response was half-maximal at 0.3 µg/mL (EC50).

Consider B2, for which the EC50 (usually the concentration needed to bring the measured effect to its halfway point) stood at 1.1 µg/mL.

B3 displayed an EC50 of 0.4 µg/mL.

The molecule B4 returned an EC50 of 0.5 µg/mL.

B5: the response was half-maximal at 0.2 µg/mL (EC50).

For B6, it took 0.8 µg/mL to reach a half-maximal effect (EC50).

B7 yielded an EC50 of 0.2 µg/mL.

B8 showed an EC50 of 0.12 µg/mL.

Consider B9, for which the midpoint of the response, the EC50, lay at 0.1 µg/mL.

In the case of B10, the EC50 came to 0.7 µg/mL.

Regarding B11, a half-maximal effect (EC50) was put at 0.3 µg/mL.

The target in the next experiment is T2, human PILRB, ectopically expressed on 293 cells (human, UniProt Q9UKJ0 20-227).
T2 construct: also called hB
T2 sequence (Q9UKJ0 20-227): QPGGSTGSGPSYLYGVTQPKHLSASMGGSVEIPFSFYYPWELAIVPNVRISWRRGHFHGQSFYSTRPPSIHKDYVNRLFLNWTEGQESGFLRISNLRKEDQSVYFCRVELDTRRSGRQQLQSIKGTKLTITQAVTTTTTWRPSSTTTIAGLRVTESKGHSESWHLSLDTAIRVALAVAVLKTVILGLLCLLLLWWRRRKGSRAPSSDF
Description: flow cytometry, 293 cells expressing target. The protocol: as §1
(In general: In flow cytometry, cells or beads pass a laser one at a time.)
On to B1, for which the binding result is reported as “no binding”.

Turning to B2, the binding result is listed as “no binding”.

B3: the binding result is reported as “no binding”.

Consider B4, for which the binding result is “no binding”.

Consider B5, for which the binding result was “no binding”.

Take B6: the binding result is on record as “no binding”.

B7: the binding result is “no binding”.

B8 returned an EC50 of 0.47 µg/mL.

Take B9: the EC50 came to 0.35 µg/mL.

B10: the EC50 stood at 3.4 µg/mL.

The molecule B11 returned an EC50 of 21.2 µg/mL.

The next experiment concerns the target cynomolgus PILRA, ectopically expressed on 293 cells (cynomolgus monkey). Kind of experiment: flow cytometry, 293 cells expressing target. The protocol: as §1
For the molecule B1, the binding result is on record as “no binding”.

The molecule B2 had an EC50 of 17.3 µg/mL.

As to B3, the binding result is listed as “no binding”.

Consider B4, for which the EC50 was 0.3 µg/mL.

B5 returned an EC50 of 0.2 µg/mL.

Turning to B6, the EC50 turned out to be 14.6 µg/mL.

Take B7: the binding result is listed as “no binding”.

For the molecule B8, the EC50 is 0.05 µg/mL.

With B9, the EC50 was found to be 0.1 µg/mL.

For the molecule B10, the binding result is on record as “no binding”.

The molecule B11 returned an EC50 of 1 µg/mL.

Another experiment concerns the target T3, murine PILRA, ectopically expressed on 293 cells (murine, UniProt Q2YFS3 32-302).
T3 construct: also called mA
Description: flow cytometry, 293 cells expressing target. The procedure:
as §1
With B1, the binding result is “no binding”.

For the molecule B2, the binding result is recorded as “no binding”.

In the case of B3, the binding result is listed as “no binding”.

For the molecule B4, the binding result is “no binding”.

For B5, the binding result is given as “no binding”.

Take B6: the binding result is reported as “no binding”.

On to B7, for which the binding result is listed as “no binding”.

As for B8, the binding result was “no binding”.

For B9, the binding result was “no binding”.

As for B10, the binding result is “no binding”.

Regarding B11, the binding result is “no binding”.

A further experiment deals with T4, murine PILRB, ectopically expressed on 293 cells (murine, UniProt Q2YFS2 29-224).
T4 construct: whole, on cells; also called mB
T4 sequence (Q2YFS2 29-224): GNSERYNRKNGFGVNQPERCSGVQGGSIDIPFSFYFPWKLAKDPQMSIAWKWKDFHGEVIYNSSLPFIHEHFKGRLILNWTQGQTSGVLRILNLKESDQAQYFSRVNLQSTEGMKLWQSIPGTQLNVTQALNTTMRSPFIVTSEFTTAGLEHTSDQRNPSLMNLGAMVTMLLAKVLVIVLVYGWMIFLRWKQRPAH
Kind of experiment: flow cytometry, 293 cells expressing target. The protocol:
as §1
Turning to B1, the binding result is “no binding”.

For the molecule B2, the binding result was “no binding”.

Consider B3, for which the binding result was “no binding”.

With B4, the binding result is “no binding”.

Regarding B5, the binding result was “no binding”.

Take B6: the binding result was “no binding”.

With B7, the binding result is listed as “no binding”.

For the molecule B8, the binding result is “no binding”.

For the molecule B9, the binding result is on record as “no binding”.

As to B10, the binding result was “no binding”.

On to B11, for which the binding result was “no binding”.

Another experiment has as its target T5, human PILRA, c-term His-Avi tag (human, UniProt Q9UKJ1 20-197, limits assumed).
T5 construct: not shown: C-terminal His-Avi tag
Kind of experiment: SPR (Biacore), antibody captured, PILRA as analyte. The procedure: Experiments were performed to determine the kinetics of anti-PILRA antibody binding to human […]. The assay is depicted in FIG. 6. A rabbit anti-PILRA was used as a positive control, and H1 LALAPS was used as a negative control. Human PILRA (human PILRA, c-term His-Avi tag, 0.68 mg/mi) was used as the antigen. The running buffer was HBSTE/0.5% BSA, pH 7.4, and the regeneration solution was 10 mM glycine-HCl (pH 2.1). In the assay, antibodies were captured at 10 μg/ml by immobilized anti-huFc or anti-msFc on a Biacore CM5 chip, and human PILRA flowed at 33, 100, and 300 nM. The surface was regenerated after each analyte, and all curves were double-referenced with buffer injections.
Take B2: binding was put at a Kd of 42.9 nM; the koff (as a rule, a measure of how fast the partners let go of each other) amounted to 0.0054 s⁻¹; the on-rate constant (kon) (commonly the second-order rate constant of association) was determined as 130000 M⁻¹ s⁻¹.

For the molecule B4, the Kd (commonly the constant that tells how readily two partners part at equilibrium) worked out at 75.7 nM, the koff turned out to be 0.0064 s⁻¹ and the kon stood at 85000 M⁻¹ s⁻¹.

Take B5: the Kd was determined as 47 nM, the koff worked out at 0.0042 s⁻¹ and the kon stood at 90000 M⁻¹ s⁻¹.

Consider B6, for which the Kd is 150 nM, the koff was found to be 0.011 s⁻¹ and the kon was determined as 70000 M⁻¹ s⁻¹.

B10 returned an equilibrium dissociation constant (Kd) of 51.3 nM, a koff of 0.0061 s⁻¹ and a kon of 120000 M⁻¹ s⁻¹.

In a further experiment the target is T6, PILRA Fc (soluble human PILRA) (human, UniProt Q9UKJ1 20-197, limits assumed).
T6 construct: also called soluble PILRA; not shown: Fc part, detected with anti-human IgG
T6 sequence (Q9UKJ1 20-197 limits assumed): as the sequence (Q9UKJ1 20-197 limits assumed) above
Description: flow cytometry; blocking of PILRA Fc binding to human CD3+ T cells (Donor 1019). The procedure:
The ability of conditioned media samples containing antibodies to inhibit the binding of PILRA Fc to human CD3+ T cells was assessed. Briefly, conditioned media samples containing antibodies were incubated with 1.25 ug/ml PILRA Fc for 30 min at 4° C. and then added to human T cells. After 30 minutes incubation at 4° C., cells were washed, and bound PILRA Fc was detected with anti-human IgG Alexa 647. Cells were analyzed by flow cytometry on FACS Canto II, and for all cell lines, the amount of PILRA Fc binding (MIFI) and the percentage of PILRA Fc binding in the presence of conditioned media relative to PILRA Fc binding alone was calculated. Several antibodies inhibited binding of PILRA Fc to human T cells, and a few antibodies enhanced PILRA-Fc binding to T cells. Antibodies that show enhancement in this assay may block cis inhibition to promote trans interactions or may allosterically activate to enhance trans interactions without blocking cis.
As to B1, the 50% inhibitory concentration (IC50) (in general, the midpoint of a concentration-inhibition curve) was 1.6 µg/mL.

B3 showed an IC50 of 3.77 µg/mL.

As for B7, the IC50 is 2.9 µg/mL.

Molecule B8 displayed an IC50 of 3.13 µg/mL.

Molecule B9 displayed an IC50 of 2 µg/mL.

In the case of B11, the IC50 amounted to 5.75 µg/mL.

The target of a further experiment is T1, human PILRA, G78 variant, ectopically …. Kind of experiment: flow cytometry; blocking of NPDC1-hIgG1 binding to 293 cells expressing human PILRA G78.
B2 gave an IC50 of 0.48 µg/mL.

Regarding B4, the IC50 was determined as 0.77 µg/mL.

B5: the IC50 was 0.38 µg/mL.

B6 gave an IC50 of 0.6 µg/mL.

The molecule B10 yielded an IC50 of 0.6 µg/mL.
